# Results: a protein production outcome set (Wang et al. 2014)
# Assay: label from the status in PepcDB records
row,Sequence,protein production
1,MTQHQTLPQTTEGAYHYQVIRRAIELIDQTDQPISLDEIAANMGMSPAHFQRVFSRWVGVLEHHHHHH,not failed
2,MTQKEISIIHPRPSSIVAALYTLRDLNVDVAILHGPPGCSFKHARLLEEDGIHVVTTGLDENGFVFGGHDKLVQVINKSIELFNPKILGVVGTCASMIIGEEMHEAVLEANPDIPVIEVEVHAGYHNNTKGVIFALESALDAGIIDHKEFERQEYLLQKATEVEKKFGAASKEYLAPSRGDVKYKVAKRLVELLKEGKKGLVIMNAKKETGYMFADITLAVNEVAEALGKKENLVNMANIDPELGLPRVRQHAEYIMRDFKAHGVEIHEIIGGMDEYPVAGEKVSELIKEKYSDYDFAVITGVPHAVPMENIGHMELISITNGPRQVLPLKEMGHEHVMVEIDLHPKTLGVSQIVESEFGATLREVAKEA,failed
3,MTQKFGLSAALTTPFKTDGTVDIDAMIAHARRCLSNGCDSVTLFGTTGEGCSVGSRERQAILSSFIAAGIAPSRIVTGVLVDSIEDAADQSAEALNAGARNILLAPPSYFKNVSDDGLFAWFSAVFSKIGKDARDILVYNIPSVTMVTLSVELVGRLKAAFPGIVTGVKDSSGNWSHTERLLKEHGDLAILIGDERDLARGVRLGGQGAISGVANFLTQEVRAMAVDGKDDPRIVDLVVELLKFPVTPAVKVLVSHTTGETIWSDVRAPLVAISPEDRRQIEGAFDALFRRQAA,not failed
4,MTQKTGALIFDETADRYDIRFDLNDYYGGLHCGDCLEVFVRGKWKPTRMEYGDNWYLVGVRASDLNGLRVRILEHHHHHH,failed
5,MTQPEETPVSFIPSNFIEKGKILNGTFDIRNAIESIVLSLAIGIPVFHLPLSLTARIIILCMTALPAAMVALIGIGGESITAFLMNALRFVVNRRVIWRSDSLPEGKPRRKPRFKEPKTKKHRKAEKMAEPSKVMASAPPQSEPDAPAPPKSKKKEHRQFDTSTKRGIKKQAKEDIRYLKWEQKEASRQKKEAAKQIKIQKKTEARRRKEEEKRAVSEKRAAKKEQKKKVVSKEDTSSATSKPVSRKKRKKDQTLEDYLPVEKIANGIVYTTDGRYVKILEIEPINFLLRSAREQQGIIYSFISYLKISPVKLQIKMISKKADINKHLEQSQLELERETDPHCQELQRDYIQFVQNLSSREAVSRRFFLIFEYEPFNANRKEEEREILAALETASQTAKTFLYQCGNEVVSHDNEDEFTTDVLYTLLNRTLCTEVPLSNRISTVLSAYTKENRMEELDHIRINEFLAPESVDFKHSHYVQINGLYHSYLLVPSDGYKNRVTPGWLSLLVNAGEGIDIDFFLQKQPKDKIQQRLGQQIRINRSKLKDASDTNTDYDDLDSAIRSGYFLKQGLANNEDFYYMNLLITITASTLEELQWRIQEMKKLLISQDMNLHSCYFLQEQGFLSSLPLANLDKKLFKLSKRNVLTSGAASCYPFVSYSICDDNGILFGVNKHNNSLVIADIFDSRQYKNSNICILGCSGAGKTFTMQTMALRMRRKGIQVFIIAPLKGHEFYRAARNVGGEFIQISPASKNCINIMEIRKVDNSVNELLDGPTLDASALAGKIQRLHIFFSLLIPDMSHEEKQLLDEALIKTYARKGITHKNESLTDPQHPEQYKKMPILEDVYNVLLESEDTKRLAHILNRLVHGSASSFNQQTNVDLTNKYTVLDISELTGSSDLLTVGMFVALDYVWDKAKENRTEEKAIFVDEVWQLIGASSNRLAAEFVLEIAKIIRAYSGAGIFATQDLNDFFALDDGKYGKGIINNCKTKIILNMEDEEAQRVKTILHLSETEVMNITHFQRGNGLISTNNNNITVEFKASNLEKELITTERQELLEILAKQKKQAV,failed
6,MTQQDFRTKVDNTVFGVRATALIVQNHKLLVTKDKGKYYTIGGAIQVNESTEDAVVREVKEELGVKAQAGQLAFVVENRFEVDGVSYHNIEFHYLVDLLEDAPLTMQEDEKRQPCEWIDLDKLQNIQLVPVFLKTALPDWEGQLRHIHLEE,not failed
7,MTQSQTNDGAGAGAVTTVESVPPQPQSQPQPQPQQQSNEMVLHTGSLSFSSHMSREDEEMTRSALSAFRAKEDEIEKRRMEVRERIQAQLGRVEQETKRLSTIREELESMADPRIWPSELESMADPMRKEVSVVRKKIDSVNKELKPLGSTVQKKAEQNSIFGNEMKQEREYKEALDTFNEKNREKVQLITKLMEMEQLVGESEKLRMIKLEELSKSIETV,not failed
8,MTRADCRSRLMEVATELFAQKGFYGVSIRELAQAAGASISMISYHFGGKEGLYAAVLQEQFACFGQLDDIRGQAGDPLAVMTAYLRWTIQRHRNNPQLLRFYTSELTNPTPCFAAIVSPAIASVIRLLAESIEAGMTRGLFRRDLHAVNSALALAGMVNYFFLSTLATEGLTSHSPDQDEELIRQYVAIFTRGIMADGGAAPA,not failed
9,MTRAINDPGNEDPGSLLETDADALLGGAAAQAPEERCRLAAQACIRACERYLALCTESSREQRQHAGDCADLCRLAALLLERRSPWAPAACELAARYALACAERCDGDEPLERECAGACRRFVEACRPLLPA,not failed
10,MTRFIHTADWQIGRQYGQFDSDDAAVLAEARLEPVARIAAQASELAVDAVLVAGDVFDTQSVSDRTIRRLFGAMQAYEGPWVLIAGNHDAALADSVWSRARRLECIGTNVHVPQDTAAVELPLAGLAVLAAPLTQRHTYDDVTAAFDTMDSAAGLVRVGLAHGSVADRLPEQADAANPIAPDRAQRARLDYLALGDWHGCLRIDERTWYAGTPEPDRFRGNAPGYALLVEVAAPGAPPQVRQLEVGKYRWSHWVERLDLASDAEDLGHRLAGLQAGDVLRLELHGALSLARRWDALRRDVERAAARVRALVADSAGLVLEPDAADLAALSVDGYVGAAAARLQAMQGDGAQAAAARVALRLLLQYQRELAEGAS,failed
11,MTRIAIALAQDFADWEPALLAAAARSYLGVEIVHATPDGMPVTSMGGLKVTPDTSYDALDPVDIDALVIPGGLSWEKGTAADLGGLVKRFRDRDRLVAGICAAASALGGTGVLNDVAHTGNALASHKAYPAYRGEAHYRDQPRAVSDGGVVTAAGSAPVSFAVEILKSLGLFGPEAEAELQIFAAEHR,not failed
12,MTRIAIVGAGPAGLSLAYFLKGSRKVEATVYESMPEPGLKPCAWGLITGIENIIPIPNETIISEIRGFRIYLDNKLVFDIRTDNKLGYIIDKPLFLKRLSQEVNVEFNSKVVKKDDKYYINDKSLDHDKVIFATGHYSVSKSMSIPAIQYITDYEIDKEVVEFYFYSGFLGYAWVFPDREGSKIGIGGYAEVPELKERLKQILKGRIRTFHGARVTDYGVIEDRLDGNYTGEALGTVYAITGEGIRPSIISSKILADSILNRKDFKKEFKKSKLYWSLNWHAKIIKMTKENDPGTARLSKALLNNDPQLILKFAIGEFNRVDLIKIFGRSLILEHHHHHH,not failed
13,MTRLNELWELYFQTLDKSTSWTFTKESFYNRYLKEPLGKKKLDSIQEHHIMAIIRHLQAEGMATRTVNTTLEILRPLFDFAIKNKALRDNPTRFIVLKKDNLEHHHHHH,failed
14,MTRMKMFKLWMVVMLLGLLPIVSEAQEEINNAINVQLEYLKKYPKDKEALRKVSFLYLNKADYDQAIFYGRQLFELGYNERDYNGAVIYSHICLGQAHMMKGNVKEAYSHLGQARLIGESNKNDSALCSVYNGLGLYASNVQKDYYRSLTYFFKGVEAARRCHYDRLYSILLSNIAGIYYLKNDSTGLKYALECYELGHERKDPYLIYSGSTNTAYMYYLKSDYNTALKYIQEAEFTMVQNDFYDQSNVYNLYGYILHKLNKDDEALVFFRKALDLKEQGNISSVMNSYLGYAEILMEHHQYDRAVRMLKAGIELSYQQANAIYRSDLLKALSRCYEEDGMLVEALKYHKLYQLETDSLYNAEKERAVGEIRAKYDMERQENEIKQNRLELLEKENKMQLLIAGFICIFIAASLLYYLYYRKNKLYLTIVKQNQDAIRREQQLQNKIDEQFAEIGRQSALLQEYLTDSTKTSLPQPEKYASSSLTDEKKQDLFLRLETLLWEEKVFTDNLLTKEKVAEMLGTNRTYLSQIINEQTKQTFTQFVNGFRTKEAVRLLSDPDNQTPLKAISAELGFNSMTTFYSQFQAATGMTPAQYRNKVQELHKNR,failed
15,MTRPIGIYEKATPKHFNWLERLQFAKELGFDFVELSIDESDERLARLEWSKEERLELVKAIFETGVRVPTITFSGHRRFPMGSNNPEKEARAMDMMKKCIVFAQDIGIRNIQLAGYDVYYEEKSPETRARFIKNLRQACTWAEEAQVILSIEIMDDPFMNSIEKYLAVEKEIDSPYLFVYPDTGNVSAWHNDLWSEFYNGHRSIAALHIKDTYAVTETSKGQFRDVPFGQGCVDWEEMFAVIKKTNYNGPFLIEMWSENCETVEETRAAIKEAQDFLYPLMEKTGVK,failed
16,MTRSERKPLLMLMVNMFVVMMGIGLVIPILPYYIEAFGASSVELGLLIAIFSFMQFLLAPFWGRLSDKVGRKPLIAVGMFGFAVAEFIFAFATQFWMLFVSRILAGAFGSAVMPAAMAYVSDRTSEEKRGHGMGLLGASMALGIVVGPGIGGWLAEFSLATPFLFAGFAASFAAIFSLLWLPESLPLEKRKTEVEPVNQFVQMWQAVRSPIGFLLFLVFGLSFGLANFQTIFGIFALHRFHYNPSEVGFIMVLTGIVGAIAQGSLVGRLTERYGEEKVVLGSLSLSGIGFLIMMLAFNYWTVIATTCLFFLGNSILRPAVQSFLSKMAGDQQGMIMGLNNSILSLGNVVGALLAGLLFEWNMFLPYTVGAFVMFASLGATFRWLSKRASQGKHPEKSSP,failed
17,MTSAAEITAAVRQLYNTYPFPPEPLLDEPPPGYNWRWSWPAAYSFCTGRYPSQLDVAILDAGCGTGVGTEYLAHLNPQAKITALDLSEAALAIACERCRRSGATNVQFHHLSLEEVAQLGQTFQMINCVGVLHHLPEPQRGIQALADVLAPGGIVHIFVYGEYGRWEIKLMQQAIALLQGSDRHNYREGVAIGRQLFAALPENNRLKKREQERWSLENQRDECFADMYVHPQEIDYTIASLFELIRASGLEFIGFSNPQVWQLERLLGSQPELLQRAQQLDPIQQYQLIECLDPEAMTHFEFFLAKPPLPRHDWAADRELLAAIPWRHPCIDGWPGACVFNCHYEVIHLNQAEQEFLNAASGKATVAELLAQQPDFNLAEVRSLLARHLLLLGVKELEHHHHHH,failed
18,MTSCTIIDATDRSIRQTLGETSTLARLIWVDAGLASPPLCSGLARCGRCRVRITEAAPAPHEDDREFFSAEDISAGWRLACRHAPAHGMVVHVPLEHHHHHH,not failed
19,MTSDGATSTSAAAAAAAAAAARRKPSWRERENNRRRERRRRAVAAKIYTGLRAQGDYNLPKHCDNNEVLKALCVEAGWVVEEDGTTYRKPLPGEIAGTSSRVTPYSSQNQSPLSSAFQSPIPSYQVSPSSSSFPSPSRGEPNNNMSSTFFPFLRNGGIPSSLPSLRISNSCPVTPPVSSPTSKNPKPLPNWESIAKQSMAIAKQSMASFNYPFYAVSAPASPTHRHQFHTPATIPECDESDSSTVDSGHWISFQKFAQQQPFSASMVPTSPTFNLVKPAPQQMSPNTAAFQEIGQSSEFKFENSQVKPWEGERIHDVGMEDLELTLGNGKARG,failed
20,MTSKRKRWTAQAAKLPSPMGGLALAIASLGWTWESVMPSLNGWGQLTGAMIASALLLMLTGKFLLHPTVLKNELSHPVIGSVIPTFAMALMVVSNLLGHYFPHAGLALWLGAIAIHVVFLGAFIYYRAIDFKLEHMVPSWFVPPIGIIVAAVSFPSNGEPWLVNTILAFGMLAYLIMLPLMLYRLIFCQAIPDAAKPTIAILAAPASLSLAGYLTVCEQPSIAVVAILVSIAILMTSVIYLAFFHLLKLPFSPGYAAFTFPMVIGATALFKTAHWLEQFSQMAELTEWVRLLADFELGVATIVVAYVALRYLTHYVPNPVENIGSTTSVQLK,failed
21,MTSLPQISTLMREKSVENKLKVKAKDDHMVPSGLYEVRAIQLPGGSWRHYYVDHSSKETYWILPYSHPDGASSHPLEKLPVYLPSYEECVDETNPLAVPEVCSPARD,not failed
